In patent publication US20080102065A1 (published 2008):
Where a chain is given by its changes, count along the chain named.

T1: mouse EpoR (muEpoR) (mouse, UniProt P14753 25-249, limits assumed)
T1 sequence (looked up): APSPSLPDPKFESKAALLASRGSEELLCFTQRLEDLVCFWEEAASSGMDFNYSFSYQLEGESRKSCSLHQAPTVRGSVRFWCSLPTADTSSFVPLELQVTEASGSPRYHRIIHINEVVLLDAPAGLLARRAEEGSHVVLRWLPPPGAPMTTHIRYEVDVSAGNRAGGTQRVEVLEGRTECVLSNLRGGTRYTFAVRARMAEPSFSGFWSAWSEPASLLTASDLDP

T2: huEpoR protein (soluble human erythropoietin receptor) (human, UniProt P19235 25-250, limits assumed)
T2 construct: also called soluble huEpoR; biotinylated huEpoR
T2 sequence (looked up): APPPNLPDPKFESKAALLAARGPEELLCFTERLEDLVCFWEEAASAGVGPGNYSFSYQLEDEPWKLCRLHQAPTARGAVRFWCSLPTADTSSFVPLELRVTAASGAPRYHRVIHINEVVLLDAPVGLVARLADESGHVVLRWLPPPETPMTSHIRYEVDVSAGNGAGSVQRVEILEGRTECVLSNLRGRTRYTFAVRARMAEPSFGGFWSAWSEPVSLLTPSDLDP

T3: cynomolgus monkey EpoR (cynoEpoR) (cynomolgus monkey, UniProt A0A2K5WKK4 25-250)
T3 construct: Soluble protein (coated in ELISA, analyte in SPR)
T3 sequence: T2 sequence (looked up) with A19V, G47A, G49S, G51D, Q58H, V112I, S135G, V138I, T148A

T4: huEpoR expressed on the cell surface (UT-7 cells) (human, UniProt P19235 25-508)
T4 sequence (looked up): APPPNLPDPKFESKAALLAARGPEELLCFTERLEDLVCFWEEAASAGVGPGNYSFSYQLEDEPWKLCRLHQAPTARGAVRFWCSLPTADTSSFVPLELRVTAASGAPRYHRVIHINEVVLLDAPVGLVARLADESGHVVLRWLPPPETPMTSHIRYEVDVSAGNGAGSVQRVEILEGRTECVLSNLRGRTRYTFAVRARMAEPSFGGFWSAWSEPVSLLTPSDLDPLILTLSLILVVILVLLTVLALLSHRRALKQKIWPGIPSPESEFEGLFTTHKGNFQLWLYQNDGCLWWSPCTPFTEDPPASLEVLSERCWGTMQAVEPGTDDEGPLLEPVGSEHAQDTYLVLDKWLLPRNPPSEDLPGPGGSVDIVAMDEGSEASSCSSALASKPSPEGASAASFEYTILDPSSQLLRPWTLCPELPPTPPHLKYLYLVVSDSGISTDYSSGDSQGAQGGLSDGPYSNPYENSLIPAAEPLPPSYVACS

B1: Mxb 13 (clone 13 scFv-Fc protein) (Fc fusion)
VH: QVQLQQSGGGVVQPGRSLRLSCAASGFTFSDYAMHWVRQAPGKGLEWVAVISNHGKSTYYADSVKGRFTISRDNSKHMLYLQMNSLRADDTALYYCARDIALAGDYWGQGTLVTVSA
VL: DIQMTQSPSSLSASVGDRVTITCRASQSISSYLNWYQQLPGKVPKLLIYGASKLQSGVPSRFSGSGSGTDFTLTISSLQPEDFATYYCLQDYNYPLTFGPGTRLEIK
notes: Tested as scFv-Fc (maxibody) with an Fc derived from human IgG1
B2: Mxb 15 (clone 15 scFv-Fc protein) (Fc fusion)
VH: QVQLQESGPGLVRPSGTLSLTCAVSGGSIGSSNWWSWVRQAPGKGLEWIGEISQSGSTNYNPSLKGRVTISLDRSRNQLSLKLSSVTAADTAVYYCARQLRSIDAFDIWGPGTTVTVSA
VL: SYVLTQPPSVSVSPGLTATITCSGDKLGDKYASWYQQKPGQSPVLVIYQDRKRPSGIPERFSGSNSGNTATLTISGTQAVDEADYYCQAWDSDTSYVFGTGTQLTVL
notes: as for B1
B3: Mxb 295 (clone 295 scFv-Fc protein) (Fc fusion)
VH: EVQLVESGGGLVQPGGSLRLSCAASGFTFSSYAMSWVRQAPGKGLEWVSGISGSGSSEGGTYYADSVKGRFTLSRDNSKNTLYLQMNSLRAEDTALYYCVKDRPSRYSFGYYFDYWGRGTLVTVSS
VL: LPVLTQPPSVSVSPGQTASIACSGNKLGDKYVSWYQQKPGQSPLLVIYQDTKRPSGIPERFSGSNSGNTATLTISGTQAMDEADYYCQAWDSSTDVVFGGGTKLTVL
notes: as for B1
B4: Mxb 307 (clone 307 scFv-Fc protein) (Fc fusion)
VH: EVQLVESGGGLVQPGGSLRLSCAVSGFTFSKYWMTWVRQAPGKGLEWVANIKPDGSEKYYVESVKGRFTISRDNAKNSVYLQMNSVRAEDTAVYYCARVSRGGSFSDWGQGTMVTVSS
VL: QSVLTQPPSASGSPGQSVTISCTGTSSDVGGYNYVSWYQQHPDKAPRLMIYDVNKRPSGVPDRFSGSKSGNTASLTVSGLQAEDEAHYYCNSYAGSNNWVFGGGTQLTVL
notes: as for B1
B5: Mxb 319 (clone 319 scFv-Fc protein) (Fc fusion)
VH: QVQLVQSGAEIKKPGASVKVSCKTFGSPFSTNDIHWVRQAPGQGLEWMGIIDTSGAMTRYAQKFQGRVTVTRETSTSTVYMELSSLKSEDTAVYYCAREGCTNGVCYDNGFDIWGQGTLVTVSS
VL: DIQMTQSPSTLSASIGDRVTITCRASEGIYHWLAWYQQKPGKAPKLLIYKASSLASGAPSRFSGSGSGTDFTLTISSLQPDDFATYYCQQYSNYPLTFGGGTKLEIK
notes: as for B1
B6: Mxb 330 (clone 330 scFv-Fc protein) (Fc fusion)
VH: B4 VH with M113L
VL: QSALTQPPSASGSPGQSVTISCTGTSSDVGAYNYVSWYQQHPGKAPKLMIYEVARRPSGVPDRFSGSKSGNTASLTVSGLQAEDEADYYCSSYAGSNNFAVFGRGTKLTVL
notes: as for B1
B7: Mxb 16 (clone 16 scFv-Fc protein) (Fc fusion)
VH: QVQLQESGPGLVKPSETLSLTCTVSGGYINNYYWSWIRQPPGKGLEWIGYIHYSGSTYYNPSLKSRVTISEDTSKNQFSLKLSSATAADTAVYYCARVGYYYDSSGYNLAWYFDLWGRGTLVTVSA
VL: SSELTQDPAVSVALGQTVRITCQGDNLRSYSATWYQQKPGQAPVLVLFGENNRPSGIPDRFSGSKSGDTAVLTITGTQTQDEADYYCTSRVNSGNHLGVFGPGTQLTVL
notes: as for B1
B8: Mxb 201 (clone 201 scFv-Fc protein) (Fc fusion)
VH: QVQLQESGSGLARPSQTLSLTCAVSGGSISSSAFSWNWIRQPPGKGLEWIGYIYHTGITDYNPSLKSRVTISVDRSKNQFSLNVNSVTAADTAVYYCARGHGSDPAWFDPWGKGTLVTVSS
VL: QSVLTQPPSVSVSPGQTASITCSGDKLGDKYASWYQQRPGQSPVLVIYRDTKRPSGIPERFSGSNSGNTATLTISGTQAVDEADYYCQAWDSTTSLVFGGGTKLTVL
notes: as for B1
B9: Mxb 276 (clone 276 scFv-Fc protein) (Fc fusion)
VH: B4 VH with E6Q, V24A, K31S, T35S, E62D, V86L, F105Y, Q110R
VL: QSVLTQPPSASGSPGQSVTISCTGTSSDVGGFNYVSWYQKYPGKAPKLVIYEVSKRPSGVPDRFSGSKSGNTASLTVSGLQAEDEADYYCSSWAPGKNLFGGGTKLTVL
B10: Mxb 323 (clone 323 scFv-Fc protein) (Fc fusion)
VH: B4 VH with E1Q, Q110R
VL: QSALTQPASVSGSPGQSITISCTGTSSDVGSYNLVSWYQQHPGKVPKLIIYEVSNRPSGVSHRFSGSKSGNTASLTISGLQAEDEADYYCSSLTSSGTWVFGGGTKVTVL
B11: Mxb 352 (clone 352 scFv-Fc protein) (Fc fusion)
VH: B4 VH with E6Q, V24A, T28R, K31S, E62D, I70M, V86L, M113L
VL: QSALTQPASVSGSPGQSITIPCTGTSSDIGTYDYVSWYQQHPGKVPKVIIYEVTNRPSGVSNRFSGSKSGNTASLTISGLQADDEADYYCNSFTKNNTWVFGGGTKLTVL
B12: Mxb 378 (clone 378 scFv-Fc protein) (Fc fusion)
VH: B4 VH with E1Q, G16R, R19I, G109S, M113L
VL: QSALTQPPSASGSPGQSVTISCTGTSGDVGAYNYVSWYQQYPGKAPKLMIYEVSKRPSGVPDRFSGSKSGNTASLTVSGLQAEDEADYYCNSYRGSNGPWVFGGGTKVTVL

Each binder was assayed against T1, mouse EpoR (muEpoR) (assay: ELISA on coated muEpoR, scFv-Fc at 5 µg/ml (Example 17)).
Procedure: The cross reactivity of certain clones in scFv-Fc format was tested using an ELISA Assay. […] 100 μl of 1 μg/ml (in 50 mM NaHCO3, pH8.5) cynoEpoR or muEpoR was added to each well on a polysorp ELISA plate and incubated at 4° C. overnight. After blocking the wells with 4% milk/PBS/0.1% Tween20 for 1 hour at room temperature, plates were washed three times with PBS/0.1% Tween20. 100 μl of 5 μg/ml scFv-Fc was added to each well and incubated for 1 hour at 25° C. […] ABTS (2,2′-azino-bis(3-ethylbenzthiazoline-6-sulfonic acid)) was used as a substrate and the absorption was measured at 405 nm on a plate reader.

B1: no binding (tested: 5 µg/ml).
B2: no binding (tested: 5 µg/ml).
B3: no binding (tested: 5 µg/ml).
B4: no binding (tested: 5 µg/ml).
B5: no binding (tested: 5 µg/ml).
B6: no binding (tested: 5 µg/ml).
B7: no binding (tested: 5 µg/ml).

The binders below were run against T2, huEpoR protein (soluble human …) (assay: SPR, Biacore T100; scFv-Fc captured on anti-human IgG Fc CM5 chip, EpoR as analyte; 1:1 fit;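 note: measured at 25 °C in HBS-EP buffer with 0.1 mg/ml BSA, flowed at 50 µl/min, 1 min association then dissociation (10 min human, 5 min cyno EpoR)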).
Procedure: (§1) Surface plasmon resonance experiments were conducted at 25° C. using a Biacore T100 instrument (Biacore AB, Uppsala, Sweden) equipped with a CM5 sensor chip. Each flow cell on the CM5 chips was activated with a 1:1 (v/v) mixture of 0.1 M N-hydroxysuccinimide (NHS) and 0.4 M1-ethyl-3-(3-dimethylaminopropyl) carbodiimide hydrochloride (EDC). Fcγ Fragment Specific AffiniPure Goat Anti-Human IgG antibody at 30 μg/ml in 10 mM sodium acetate, pH 5.0 was immobilized to two flow cells on the CM5 chips using standard amine coupling chemistry with a target level of 10,000 Resonance Units (RU). Residual reactive surfaces were deactivated with an injection of 1 M ethanolamine. The running buffer was then switched to HBS-EP+0.1 mg/ml BSA for all remaining steps.
(§2) For each scFv-Fc protein to be tested, the scFv-Fc protein was diluted in running buffer to 200 ng/ml and injected over the test flow cell at 10 μl/min for 2 minutes to capture the maxibody. […] A flow rate of 50 μl/min was used and a 1 minute association phase followed by a 5 minute (for cyno EpoR) or 10 minute (for hu EpoR) dissociation phase. After each cycle the surfaces were regenerated with a 30 second injection of 10 mM glycine pH 1.5. Fresh scFv-Fc protein was then captured on the test flow cell to prepare for the next cycle.

First: B1
Second: B2
The Kd of the first is 1.9-fold lower: 1040 nM for the first, 1950 nM for the second.

Compared with B8, B3 is 25-fold lower in Kd: 4030 nM for the first, 163 nM for the second.

First: B4
Second: B5
The Kd of the first is 2-fold lower: 108 nM for the first, 212 nM for the second. The first binds more tightly here.

First: B6
Second: B7
The Kd of the first is 48-fold lower: 45.4 nM for the first, 2190 nM for the second.

First: B1
Second: B2
The koff of the first is 2.1-fold lower: 0.0568 s⁻¹ for the first, 0.119 s⁻¹ for the second.

Compared with B8, B3 is 6.3-fold lower in koff: 0.0187 s⁻¹ for the first, 0.00296 s⁻¹ for the second.

Compared with B4, B5 is 7.3-fold lower in koff: 0.246 s⁻¹ for the first, 0.0335 s⁻¹ for the second.

Compared with B6, B7 is 3.8-fold higher in koff: 0.0373 s⁻¹ for the first, 0.142 s⁻¹ for the second.

B1 and B2 are within 1.5-fold of each other in kon: 55000 M⁻¹ s⁻¹ for the first, 61000 M⁻¹ s⁻¹ for the second.

First: B8
Second: B3
The kon of the first is 3.9-fold lower: 4600 M⁻¹ s⁻¹ for the first, 18000 M⁻¹ s⁻¹ for the second.

Going from B4 to B5, the kon falls from 2.28e+06 M⁻¹ s⁻¹ to 158000 M⁻¹ s⁻¹ (14-fold).

Going from B6 to B7, the kon falls from 822000 M⁻¹ s⁻¹ to 65000 M⁻¹ s⁻¹ (13-fold).

Each binder was assayed against T3, cynomolgus monkey EpoR (cynoEpoR) in the same assay as above.
Procedure: as §1, §2

First: B1
Second: B2
The Kd of the first is 3.4-fold lower: 920 nM for the first, 3130 nM for the second.

Compared with B3, B4 is 2.2-fold higher in Kd: 539 nM for the first, 1210 nM for the second. The first binds more tightly here.

Compared with B5, B6 is 7.4-fold higher in Kd: 121 nM for the first, 890 nM for the second. The first binds more tightly here.

Work on B7 yielded a Kd of 4360 nM.

First: B1
Second: B2
The koff of the first is 1.9-fold lower: 0.0597 s⁻¹ for the first, 0.115 s⁻¹ for the second.

Going from B3 to B4, the koff rises from 0.0221 s⁻¹ to 0.361 s⁻¹ (16-fold).

Going from B5 to B6, the koff rises from 0.0258 s⁻¹ to 0.0965 s⁻¹ (3.7-fold).

B7 was tested, and the koff was 0.283 s⁻¹.

First: B1
Second: B2
The kon of the first is 1.8-fold higher: 65000 M⁻¹ s⁻¹ for the first, 37000 M⁻¹ s⁻¹ for the second.

Compared with B3, B4 is 7.3-fold higher in kon: 41000 M⁻¹ s⁻¹ for the first, 299000 M⁻¹ s⁻¹ for the second.

Compared with B5, B6 is 2-fold lower in kon: 213000 M⁻¹ s⁻¹ for the first, 108000 M⁻¹ s⁻¹ for the second.

With B7 the kon was 65000 M⁻¹ s⁻¹.

Each binder was assayed against T4, huEpoR expressed on the cell surface … (assay: cell-based or functional assay).

B1 and B2 are within 1.5-fold of each other in “Average EC50 (nM), UT-7-luciferase (STAT5 reporter) assay” value (from here on “Average EC50 (nM), UT-7-luciferase”): 4.03 nM for the first, 2.8 nM for the second.

Compared with B8, B9 is 26-fold lower in “Average EC50 (nM), UT-7-luciferase” value: 8.28 nM for the first, 0.322 nM for the second.

First: B3
Second: B4
The “Average EC50 (nM), UT-7-luciferase” value of the first is 1.6-fold higher: 0.607 nM for the first, 0.381 nM for the second.

Going from B5 to B10, the “Average EC50 (nM), UT-7-luciferase” value falls from 5.87 nM to 0.613 nM (9.6-fold).

Compared with B6, B11 is 290-fold higher in “Average EC50 (nM), UT-7-luciferase” value: 0.0075 nM for the first, 2.16 nM for the second.

For B12, the “Average EC50 (nM), UT-7-luciferase” value was 0.055 nM.

Compared with B1, B2 is higher in “Ratio (EC50 of Epo / EC50 of the scFv-Fc), UT-7-luciferase assay” value: 0.002 for the first, 0.003 for the second.

Going from B8 to B9, the “Ratio (EC50 of Epo / EC50 of the scFv-Fc), UT-7-luciferase assay” value rises from 0.001 to 0.03.

First: B3
Second: B4
The “Ratio (EC50 of Epo / EC50 of the scFv-Fc), UT-7-luciferase assay” value of the first is lower: 0.016 for the first, 0.025 for the second.

First: B5
Second: B10
The “Ratio (EC50 of Epo / EC50 of the scFv-Fc), UT-7-luciferase assay” value of the first is lower: 0.002 for the first, 0.016 for the second.

First: B6
Second: B11
The “Ratio (EC50 of Epo / EC50 of the scFv-Fc), UT-7-luciferase assay” value of the first is higher: 1.28 for the first, 0.004 for the second.

B12 was tested, and the “Ratio (EC50 of Epo / EC50 of the scFv-Fc), UT-7-luciferase assay” value was 0.175.
